{
  "source": "paper PMC11200690",
  "about": "(Antibodies, 2024)",
  "binders": {"B1": {"name": "Ab8 scFv (scFv, V domains shown)", "VH": "QVQLGESGGGVVRPGGSLRLSCAASGFTFSSYAMSWVRQAPGKGLEWVSAISGSGGSTYYADSVKGRFTISRENAKNSLYLQMNSLRAEDTAVYYCARRGGVWAFDIWGQGTMVTVSS", "VL": "DVVMTQSPLSLPVTPGEPASISCRSSQSLLHSNGINYLDWYLQKPGQSPQLLIYLGSSRASGVPDRFSGSGSGTDFTLKISRVEAEDVGVYFCMQALQTPLTFGQGTKLEIK", "notes": "as the VH of m1; as the VL of m1; also called scFv Ab8; ScFv of Ab8; source: HB2151 cells (pComb3x plasmid), purified (Ni-NTA); not shown: Flag, C-terminal, kept"}},
  "target": "T1, recombinant human HER2 ECD protein (Homo sapiens, UniProt P04626)",
  "T1 construct": "human epidermal growth factor receptor-2 (HER2, Erbb2), extracellular domain; also called HER2 antigen; Erbb2; source: bought: SinoBiological (10004-H08H)",
  "experiment": "BLI; scFv formats against HER2 ECD; set-up not told (Figure S2)",
  "details": "both partners purified",
  "data": [
    {"binder": "B1", "values": [
      {"measurement": "Kd", "value": 9, "unit": "nM"}
    ]}
  ]
}
